These results are taken from patent publication US11904004B2, “Anti-CD277 antibodies” (INSTITUT NATIONAL DE LA SANTE ET DE LA RECHERCHE MEDICALE …, priority 2010, dated 2024).

The test system of the experiment is CD4+ T cells. Nature of the experiment: Functional assays on CD4+ T cells using plate-immobilized mAbs. Type of experiment: cell-based, human. As to the method:
Purified CD4+ T cells (200×10^3 cells/well) from thawed human PBMCs were cultured in RPMI 1640 10% FBS in flat bottom 96-well plates (MICROTEST™ 96, BD) with previously plate-immobilized mouse anti-human CD3 (clone OKT3)/CD28 (clone CD28.2) or anti-CD3/anti-CD277 (clone 20.1) or anti-CD3/isotypic control (IgG1). Purified anti-CD3 was used at 0, 3 μg/ml. Anti-CD28, anti-CD277 and isotypic control were used at 10 μg/ml. Cells were placed into an atmosphere of 5% CO2 at 37° C. in a humidified incubator. […] […] Data were analyzed using FLOWJO® Software (TreeStar, Ashland, OR).

Setting [1] is: co-stimulation with anti-CD3, vs anti-CD3/IgG1 control, after 24 hours of culture.

B1: mAb 20.1: murine anti-CD277 antibody obtainable from the hybridoma CNCM I-4402; agonist (antibody, V domains shown)
VH: QVQLQQSGAELVKPGASVKLSCKASGYTFTRYYLYWVKQRPGQGLEWIGEINPNNGGTKFNEKFKSKATLTVDKSSRTTYIQLSSLTSEDSAVYYCSREDDYDGTPDAMDYWGQGTAVTVSS
VL: DIQMNQSPSSLSASLGDTITITCHASQNINLWLSWYQQRPGNIPKLLIYRASNLHTGVPSRFSGSGSATGFTLTISSLQPEDIATYYCQQGHSYPYTFGGGTKLDIK
With B1, under setting [1], the “IFN-γ production by CD4+ T cells (ELISA)” value is “strongly enhanced” and the “IL-2 production by CD4+ T cells (ELISA)” value was “significantly highest than the one with the IgG control”. Further, the “CD25 activated positive cells” value (co-stimulation with anti-CD3, after 3 days of culture) stood at 45%.
